Data set [1] concerns the target LI PCNA (His-tagged mutant Xenopus PCNA), P18248.
Data set [2] addresses LIPK PCNA (L126A-I128A-P253A-K254A PCNA, His-tagged), P18248.
In data set [3] the target is PK PCNA (P253A-K254A PCNA, His-tagged), P18248.
Data set [4] addresses WT His-tagged PCNA (recombinant Xenopus PCNA), P18248.
Data set [5] addresses PCNA, endogenous, in Xenopus egg extract (HSS), P18248.

PCNA, endogenous, in Xenopus egg extract (HSS), P18248, sequence (P18248 whole entry): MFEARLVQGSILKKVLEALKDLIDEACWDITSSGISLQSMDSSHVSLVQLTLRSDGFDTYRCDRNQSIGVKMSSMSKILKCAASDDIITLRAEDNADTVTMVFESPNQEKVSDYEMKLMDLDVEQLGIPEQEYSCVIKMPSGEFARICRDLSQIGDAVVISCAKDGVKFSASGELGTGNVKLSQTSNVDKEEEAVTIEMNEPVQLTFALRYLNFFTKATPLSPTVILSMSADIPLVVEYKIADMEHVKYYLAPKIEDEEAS
LIPK PCNA (L126A-I128A-P253A-K254A PCNA, His-tagged), P18248, sequence (P18248 whole entry L126A/I128A/P253A/K254A): as the sequence (P18248 whole entry) above, with L126A, I128A, P253A, K254A counted along it
LI PCNA (His-tagged mutant Xenopus PCNA), P18248, sequence (P18248 other isoform, or with tags, fused parts or gaps mutant): as the sequence (P18248 whole entry) above, with L126A, I128A counted along it
WT His-tagged PCNA (recombinant Xenopus PCNA), P18248, sequence (P18248 whole entry): as the sequence (P18248 whole entry) above
PK PCNA (P253A-K254A PCNA, His-tagged), P18248, sequence (P18248 whole entry P253A/K254A): as the sequence (P18248 whole entry) above, with P253A, K254A counted along it

B1: GST-APE2 (recombinant GST-tagged Xenopus APE2) (protein)
chain: MKIVSWNINGIRATRVGLKETLDSLDADIICLQETKVTRDLLDEPSAIVEGYNSYFSFSRVRSGYSGVATFCKSSTTPQAAEEGLSGVFCNRTGSVGCYGNTEQFLEEELQSLDQEGRAVLTQHRILNCEDKEETLTVINVYCPRADPEKPERKTYKLRFYHLLQTRAEAILQNGGHVIILGDVNTSHRPLDHCDPTDLETFEENPGRQWLNQFLGDPIPSQKGDSETVMPPSAGSGLFYDSFRYFHPTQKNAFTCWCSASGARQTNYGTRIDYILGNRELVESEFLDSVIMPEVEGSDHCPVKAFMKCQPIAANKCPPLCTKYLPEFAGRQQKLLQFLVKKENTLGNTTEESSELTGTPSFTEGADISTVRKRPSDKLNSTSKKKSKIVTKNGQGNLLSFFKPERQKLTMATECNPIEVPICKKEKTVQKDLQPATPAVKYNKPQTAFWKSLLKGPPPPPNCKGHSEPCVLRTVKKAGPNCGRQFYVCARPEGHSSNPQARCNFFLWLTKKAGCED
Regarding B1, the “exonuclease activity on FAM-labeled gapped dsDNA (Type I resected products), purified proteins in vitro” value in data set [1] is reported as “The gapped dsDNA was catalyzed into Type I resected products by recombinant APE2 with the presence of WT PCNA, but not LIPK PCNA, LI PCNA, or PK PCNA”; in data set [2], “The gapped dsDNA was catalyzed into Type I resected products by recombinant APE2 with the presence of WT PCNA, but not LIPK PCNA, LI PCNA, or PK PCNA”; in data set [3] it was “The gapped dsDNA was catalyzed into Type I resected products by recombinant APE2 with the presence of WT PCNA, but not LIPK PCNA, LI PCNA, or PK PCNA”; in data set [4], “The gapped dsDNA was catalyzed into Type I resected products by recombinant APE2 with the presence of WT PCNA, but not LIPK PCNA, LI PCNA, or PK PCNA”.

B2: C470A Myc-APE2 (protein)
chain: MKIVSWNINGIRATRVGLKETLDSLDADIICLQETKVTRDLLDEPSAIVEGYNSYFSFSRVRSGYSGVATFCKSSTTPQAAEEGLSGVFCNRTGSVGCYGNTEQFLEEELQSLDQEGRAVLTQHRILNCEDKEETLTVINVYCPRADPEKPERKTYKLRFYHLLQTRAEAILQNGGHVIILGDVNTSHRPLDHCDPTDLETFEENPGRQWLNQFLGDPIPSQKGDSETVMPPSAGSGLFYDSFRYFHPTQKNAFTCWCSASGARQTNYGTRIDYILGNRELVESEFLDSVIMPEVEGSDHCPVKAFMKCQPIAANKCPPLCTKYLPEFAGRQQKLLQFLVKKENTLGNTTEESSELTGTPSFTEGADISTVRKRPSDKLNSTSKKKSKIVTKNGQGNLLSFFKPERQKLTMATECNPIEVPICKKEKTVQKDLQPATPAVKYNKPQTAFWKSLLKGPPPPPNCKGHSEPAVLRTVKKAGPNCGRQFYVCARPEGHSSNPQARCNFFLWLTKKAGCED
Take B2: in data set [5], the “3'-5' SSB end resection of FAM-SSB in APE2-depleted HSS” value was “VVT APE2 but not C470A APE2 rescued the deficiency of SSB end resection of FAM-SSB in APE2-depleted HSS”; the “SSB-induced Chk1 phosphorylation in APE2-depleted HSS” value (“SSB-induced Chk1 phosphorylation” for short) is “WT, but not C470A, APE2 was found to rescue the SSB-induced Chk1 phosphorylation in APE2-depleted HSS”; the “recruitment of RPA32, ATR, ATRIP, TopBP1, and Rad9 to SSB plasmid in APE2-depleted HSS” value is “WT APE2, but not C470A APE2, rescued the recruitment of RPA32, ATR, ATRIP, TopBP1, and Rad9 to SSB in APE2-depleted HSS”.

B3: G483A-R484A Myc-APE2 (protein)
chain: MKIVSWNINGIRATRVGLKETLDSLDADIICLQETKVTRDLLDEPSAIVEGYNSYFSFSRVRSGYSGVATFCKSSTTPQAAEEGLSGVFCNRTGSVGCYGNTEQFLEEELQSLDQEGRAVLTQHRILNCEDKEETLTVINVYCPRADPEKPERKTYKLRFYHLLQTRAEAILQNGGHVIILGDVNTSHRPLDHCDPTDLETFEENPGRQWLNQFLGDPIPSQKGDSETVMPPSAGSGLFYDSFRYFHPTQKNAFTCWCSASGARQTNYGTRIDYILGNRELVESEFLDSVIMPEVEGSDHCPVKAFMKCQPIAANKCPPLCTKYLPEFAGRQQKLLQFLVKKENTLGNTTEESSELTGTPSFTEGADISTVRKRPSDKLNSTSKKKSKIVTKNGQGNLLSFFKPERQKLTMATECNPIEVPICKKEKTVQKDLQPATPAVKYNKPQTAFWKSLLKGPPPPPNCKGHSEPCVLRTVKKAGPNCAAQFYVCARPEGHSSNPQARCNFFLWLTKKAGCED
Turning to B3, in data set [5], the “SSB-induced Chk1 phosphorylation” value was “G483A-R484A APE2, which is deficient in interaction with ssDNA and PCNA CTM motif (FIGS. 12D and 12E), also failed to rescue the SSB-induced Chk1 phosphorylation in APE2-depleted HSS”; the “hydrogen peroxide-induced Chk1 phosphorylation in APE2-depleted LSS” value is reported as “VVT APE2, but not G483A-R484A APE2, rescued the hydrogen peroxide-induced Chk1 phosphorylation in APE2-depleted LSS system”.

B4: WT Myc-APE2 (recombinant Myc-tagged Xenopus APE2) (protein)
chain: MKIVSWNINGIRATRVGLKETLDSLDADIICLQETKVTRDLLDEPSAIVEGYNSYFSFSRVRSGYSGVATFCKSSTTPQAAEEGLSGVFCNRTGSVGCYGNTEQFLEEELQSLDQEGRAVLTQHRILNCEDKEETLTVINVYCPRADPEKPERKTYKLRFYHLLQTRAEAILQNGGHVIILGDVNTSHRPLDHCDPTDLETFEENPGRQWLNQFLGDPIPSQKGDSETVMPPSAGSGLFYDSFRYFHPTQKNAFTCWCSASGARQTNYGTRIDYILGNRELVESEFLDSVIMPEVEGSDHCPVKAFMKCQPIAANKCPPLCTKYLPEFAGRQQKLLQFLVKKENTLGNTTEESSELTGTPSFTEGADISTVRKRPSDKLNSTSKKKSKIVTKNGQGNLLSFFKPERQKLTMATECNPIEVPICKKEKTVQKDLQPATPAVKYNKPQTAFWKSLLKGPPPPPNCKGHSEPCVLRTVKKAGPNCGRQFYVCARPEGHSSNPQARCNFFLWLTKKAGCED
Regarding B4, in data set [5], the “3'-5' SSB end resection of FAM-SSB in APE2-depleted HSS” value is recorded as “VVT APE2 but not C470A APE2 rescued the deficiency of SSB end resection of FAM-SSB in APE2-depleted HSS”; the “SSB-induced Chk1 phosphorylation” value is recorded as “WT, but not C470A, APE2 was found to rescue the SSB-induced Chk1 phosphorylation in APE2-depleted HSS”; the “hydrogen peroxide-induced Chk1 phosphorylation in APE2-depleted LSS” value is listed as “VVT APE2, but not G483A-R484A APE2, rescued the hydrogen peroxide-induced Chk1 phosphorylation in APE2-depleted LSS system”; the “recruitment of RPA32, ATR, ATRIP, TopBP1, and Rad9 to SSB plasmid in APE2-depleted HSS” value was “WT APE2, but not C470A APE2, rescued the recruitment of RPA32, ATR, ATRIP, TopBP1, and Rad9 to SSB in APE2-depleted HSS”.

The record behind these values is US20200017862.
